Data: PMC11603049

Target: MARV NPcore (VP35 NPBP removed by TEV) (Marburg virus (Mt. Elgon-Musoke strain), UniProt P27588 1-430)
Sequence (P27588 1-430): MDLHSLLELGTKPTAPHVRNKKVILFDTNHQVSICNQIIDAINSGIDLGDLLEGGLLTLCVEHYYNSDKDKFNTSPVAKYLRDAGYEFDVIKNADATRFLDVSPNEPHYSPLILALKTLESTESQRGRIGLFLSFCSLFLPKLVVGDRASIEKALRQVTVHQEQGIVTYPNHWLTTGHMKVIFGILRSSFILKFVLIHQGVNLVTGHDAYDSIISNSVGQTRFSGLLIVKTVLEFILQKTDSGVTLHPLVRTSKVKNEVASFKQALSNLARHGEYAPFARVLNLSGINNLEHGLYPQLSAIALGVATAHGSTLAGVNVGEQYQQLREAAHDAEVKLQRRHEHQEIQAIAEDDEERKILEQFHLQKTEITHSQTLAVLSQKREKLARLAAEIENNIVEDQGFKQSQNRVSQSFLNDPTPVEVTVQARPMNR

AGACACACAAAAACAAGA (ssRNA) [18 nt ssRNA, first 18 bases of the MARV genome]: binds.
